Tests used:
[1] = target: Ndd^JamL-LipPKS1* (Moorea producens | not stated)

Which combined titer of 7 and 8 in E. coli (maximum amount of product) [1] does the source give for JamC(E32T)-Cdd^JamK here?
Its combined titer of 7 and 8 in E. coli (maximum amount of product) is 16 mg/L.

What about the combined titer of 7 and 8 in E. coli, against unmodified JamC/LipPKS1* [1] of the same molecule?
Its combined titer of 7 and 8 in E. coli, against unmodified JamC/LipPKS1* is 39 fold.

B1: JamC (E32T) (natural protein)
chain: MENLTVETQNLTSLDNGSIEEKNGPTVDEVQTWLISYLSQLLDLEIEEISTSTSFNRYGLDSSASISLTSDFGDWISKEIDPTILYSYPTIEAMAEHFGA
modifications: holo-ACP, acyl chain loaded by JamA; residue not stated
B1 was tested. Which in vitro product formation assay: formation of 7 against wild-type JamC (LipPKS1*) did it give?
Its in vitro product formation assay: formation of 7 against wild-type JamC is 7 fold.

B2: JamC (E32H) (natural protein)
chain: MENLTVETQNLTSLDNGSIEEKNGPTVDEVQHWLISYLSQLLDLEIEEISTSTSFNRYGLDSSASISLTSDFGDWISKEIDPTILYSYPTIEAMAEHFGA
modifications: holo-ACP, acyl chain loaded by JamA; residue not stated
For B2, which in vitro product formation assay: formation of 7 against wild-type JamC (DEBSM6*) is on record?
Its in vitro product formation assay: formation of 7 against wild-type JamC is 2 fold.

From article PMC9829517
